The record followed here is US20200353078A1 (AstraZeneca / MedImmune, published 2020).

The target in assay [1] is T1, Human IL-33 (Axxora/Adipogen AG-40B-0038) (human, UniProt O95760 112-270, limits assumed).
T1 sequence (looked up): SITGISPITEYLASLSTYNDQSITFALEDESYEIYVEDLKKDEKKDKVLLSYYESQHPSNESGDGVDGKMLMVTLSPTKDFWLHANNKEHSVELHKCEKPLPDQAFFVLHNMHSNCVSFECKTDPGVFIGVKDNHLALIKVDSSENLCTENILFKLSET
Kind of assay: cell-based or functional assay.

Assay [2] has as its target T1, Human IL-33 (Axxora/Adipogen …). Kind of assay: cell-based or functional assay. This is another data set of the same source.
Assay [3] deals with T2, His10/Avi Human IL33-01 (human).
T2 construct: Wild type mature IL-33 with N-terminal 10xHis, Avitag and Factor Xa site; biotinylated by BirA on the Avitag where used biotinylated; reduced form unless treated; also called N-terminal His Avi IL-33; His-Avi human IL-33 wild type
T2 chain: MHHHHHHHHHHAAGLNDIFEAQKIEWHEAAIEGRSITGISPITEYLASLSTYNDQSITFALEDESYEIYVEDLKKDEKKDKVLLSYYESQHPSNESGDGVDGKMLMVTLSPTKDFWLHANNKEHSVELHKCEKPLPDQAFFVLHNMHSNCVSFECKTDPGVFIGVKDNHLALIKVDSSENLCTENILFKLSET
Kind of assay: HTRF epitope competition, IgG titrated; competitor DyLight labelled 33_640117 IgG; 1 hour. How it is done: (§1) As the epitope competition assay utilising 33_640027 reached its limit of sensitivity, an assay using 33_640117 was used for testing purified scFv samples. The assay was essentially as described for the 33v20064 competition assay with the following modifications: 2.5 nM DyLight labelled 33_640117 was prepared and 2.5 microlitres added to the assay plates. This was followed by the addition of 2.5 microlitres of a solution containing 0.12 nM biotinylated human IL-33-01 combined with 0.75 nM streptavidin cryptate detection (Cisbio International, 610SAKLB) for the human assay or a solution containing 0.24 nM biotinylated cynomolgus IL-33 combined with 1.5 nM streptavidin cryptate detection (Cisbio International, 610SAKLB) for the cynomolgus assay. Fluorescence was read after one hour and overnight incubation.
(§2) The ability of anti-IL-33 antibodies to inhibit the binding of biotinylated His Avi human IL-33 or cynomolgus His Avi IL-33 to the DyLight labelled 33_640117 IgG was assessed in a biochemical HTRF® (Homogeneous Time-Resolved Fluorescence, Cisbio International) competition assays as described above.

A further assay has as its target T3, His10/Avi Cyno IL-33 (cynomolgus monkey).
T3 construct: also called Cynomolgus 10His Avitag IL-33; biotinylated His Avi cynomolgus IL-33
T3 chain: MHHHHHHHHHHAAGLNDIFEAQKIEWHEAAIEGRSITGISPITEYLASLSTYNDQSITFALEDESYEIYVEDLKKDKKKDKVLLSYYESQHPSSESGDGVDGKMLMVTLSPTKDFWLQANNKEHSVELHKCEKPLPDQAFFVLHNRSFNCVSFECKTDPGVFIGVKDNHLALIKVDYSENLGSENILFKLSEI
The assay is described as above. How it is done: as §1, §2

In assay [4] the target is T2, His10/Avi Human IL33-01. Kind of assay: HTRF epitope competition, IgG titrated; competitor DyLight labelled 33_640117 IgG; overnight. How it is done: as §1, §2
The target in assay [5] is T2, His10/Avi Human IL33-01. Kind of assay: cell-based or functional assay.
Assay [6] addresses T4, Full-length human IL-33 (amino acids 1-270), HEK293-EBNA cell lysate (human, UniProt O95760 1-270).
T4 sequence (looked up): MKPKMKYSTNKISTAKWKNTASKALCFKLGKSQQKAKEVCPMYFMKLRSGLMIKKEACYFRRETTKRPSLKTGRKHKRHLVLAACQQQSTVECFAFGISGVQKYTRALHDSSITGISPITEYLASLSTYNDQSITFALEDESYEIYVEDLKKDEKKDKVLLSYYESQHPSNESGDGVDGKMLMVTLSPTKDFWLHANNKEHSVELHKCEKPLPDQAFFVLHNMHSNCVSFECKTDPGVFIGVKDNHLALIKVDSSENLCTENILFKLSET
Briefly: cell-based or functional assay.

Assay [7] has as its target T5, Recombinant human IL-33 (construct not named in the example) (human, UniProt O95760 112-270, limits assumed).
T5 construct: also called Recombinant, enzymatically biotinylated human IL-33 (produced in-house); IL-33 (200 nM)
T5 sequence (looked up): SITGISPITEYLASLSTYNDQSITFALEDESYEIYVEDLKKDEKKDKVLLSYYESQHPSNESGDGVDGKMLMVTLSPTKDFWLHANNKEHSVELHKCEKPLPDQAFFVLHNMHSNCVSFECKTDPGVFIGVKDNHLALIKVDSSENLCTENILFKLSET
Briefly: SPR Biacore T100, 25 C, biotinylated human IL-33 on streptavidin C1 chip, Fab as analyte. How it is done: Fab fragments were generated by papain cleavage from full length IgG1 and purified by SEC. […] Streptavidin was covalently immobilised to a C1 chip surface using standard amine coupling techniques at a concentration of […] in 10 mM Sodium acetate pH 4.5. […] Recombinant, enzymatically biotinylated human IL-33 (produced in-house) was titrated onto the streptavidin chip surface at […] in HBS-EP+ buffer to enable ˜30 RUs of Fab binding at saturation (Rmax). This low level of analyte binding ensured minimal mass transport effects.
The IL-33 Fab was serially diluted from 5 nM to 78 pM in HBS-EP+ buffer and flowed over the chip at 50 μl/min, with 3 minutes association and up to 30 minutes dissociation. Multiple buffer only injections were made under the same conditions to allow for double reference subtraction of the final sensorgram sets, which were analysed using the BiaEval software (version 2.0.1). The chip surface was fully regenerated with pulses of 3M MgCl₂.
(Surface plasmon resonance follows binding to a sensor surface in real time, without labels.)

The target in assay [8] is T1, Human IL-33 (Axxora/Adipogen …). Briefly: cell-based or functional assay. The source holds these as a separate data set.

For orientation: IC50 means the concentration at which inhibition is half-maximal. Higher therefore signals weaker potency. The term Kd denotes the constant that tells how readily two partners part at equilibrium. Usually koff stands for the first-order rate constant of dissociation. Usually kon stands for the rate constant with which the complex forms.

Like-named read-outs stand apart in the source and are kept apart here.

B1: IL330377 IgG1 (antibody, V domains shown)
VH: EVQLLESGGGLVQPGGSLRLSCAASGFTFSSYAMSWVRQAPGKGLEWVSASDMLYGSTYYADSVKGRFTISRDNSKNTLYLQMNSLRAEDTAVYYCSQNILGYFDSWGRGTLVTVSS
VL: SYVLTQPPSVSVSPGQTARITCSGDALPKQYAHWYQQKPGQAPALVIYKDTERPSGIPERFSGSSSGTTVTLTISGVQAEDEADYYCQSADSTGYHRVFGGGTKVTVL
In the case of B1, the “Huvec IL-6 production, maximum inhibition” value in [1] was approximately 70%.

B2: IL330396_fgl IgG1 (antibody, V domains shown)
VH: EVQLLESGGGLVQPGGSLRLSCAASGFTFSSYAMSWVRQAPGKGLEWVSASTPWQGSTYYADSVKGRFTISRDNSKNTLYLQMNSLRAEDTAVYYCVRWYWGWIDSWGRGTLVTVSS
VL: SYELMQPPSVSVSPGQTARITCSGDALPKQYAHWYQQKPGQAPVLVIYKDTERPSGIPERFSGSSSGTTVTLTISGVQAEDEADYYCMSSDDTGASRVFGGGTKLTVL
Regarding B2, in assay [2], the “IC50, Huvec IL-6 production” value is 2.8 nM and the “IC50, Mast cell IL-6 production” value is 1.5 nM.

B3: IL330388_fgl IgG1 (antibody, V domains shown)
VH: EVQLLESGGGLVQPGGSLRLSCAASGFTFSSYAMSWVRQAPGKGLEWVSASTPWQGSTYYADSVKGRFTISRDNSKNTLYLQMNSLRAEDTAVYYCVRWYWGWIDSWGRGTLVTVSS
VL: SYELMQPPSVSVSPGQTARITCSGDALPKQYAHWYQQKPGQAPVLVIYKDTERPSGIPERFSGSSSGTTVTLTISGVQAEDEADYYCMSSDPSGASRVFGGGTKLTVL
B3: in assay [2], the “IC50, Huvec IL-6 production” value turned out to be 2.1 nM and the “IC50, Mast cell IL-6 production” value was determined as 1.2 nM.

B4: IL330377_fgl IgG1 (antibody, V domains shown)
VH: EVQLLESGGGLVQPGGSLRLSCAASGFTFSSYAMSWVRQAPGKGLEWVSASDMLYGSTYYADSVKGRFTISRDNSKNTLYLQMNSLRAEDTAVYYCSQNILGYFDSWGRGTLVTVSS
VL: SYELMQPPSVSVSPGQTARITCSGDALPKQYAHWYQQKPGQAPVLVIYKDTERPSGIPERFSGSSSGTTVTLTISGVQAEDEADYYCQSADSTGYHRVFGGGTKLTVL
For B4, in assay [2], the “IC50, Huvec IL-6 production” value was 6.6 nM and the “IC50, Mast cell IL-6 production” value worked out at 1.3 nM.

B5: IL330398 IgG1 (antibody, V domains shown)
VH: EVQLLESGGGLVQPGGSLRLSCAASGFTFSSYAMSWVRQAPGKGLEWVSASTPWQGSTYYADSVKGRFTISRDNSKNTLYLQMNSLRAEDTAVYYCVRWYWGWIDSWGRGTLVTVSS
VL: SYVLTQPPSVSVSPGQTARITCSGDALPKQYAHWYQQKPGQAPALVIYKDTERPSGIPERFSGSSSGTTVTLTISGVQAEDEADYYCLSSDASGASRVFGGGTKVTVL
As for B5, in [1], the “Huvec IL-6 production, maximum inhibition” value is approximately 70%.

B6: IL330398_fgl IgG1 (antibody, V domains shown)
VH: EVQLLESGGGLVQPGGSLRLSCAASGFTFSSYAMSWVRQAPGKGLEWVSASTPWQGSTYYADSVKGRFTISRDNSKNTLYLQMNSLRAEDTAVYYCVRWYWGWIDSWGRGTLVTVSS
VL: SYELMQPPSVSVSPGQTARITCSGDALPKQYAHWYQQKPGQAPVLVIYKDTERPSGIPERFSGSSSGTTVTLTISGVQAEDEADYYCLSSDASGASRVFGGGTKLTVL
B6: in [2], the “IC50, Huvec IL-6 production” value amounted to 1.5 nM and the “IC50, Mast cell IL-6 production” value stood at 0.9 nM.

B7: 33_640081 IgG1 (antibody, V domains shown)
VH: EVQLLESGGGSVQPGGSLRLSCAASGFTFSSYAMNWVRQAPGKGLEWVSAISGSGGSTHYADSVKGRFTISRDNSKNTLYLQMNSLRAEDTAVYYCGRAKFMQLWGGGLRYPLGYWGQGTMVTVSS
VL: SYVLTQPPSVSVSPGQTASITCSGERMGDKYAAWYQQKPGQSPVLVIYQDTKRPSGIPERFSGSNSGNTATLTISGTQATDEADYYCQVWAADDTGVFGGGTKVTVL
notes: IgG1; also called ZZ1JMB-H05
Turning to B7, the concentration for half-maximal inhibition (IC50) with His10/Avi Human IL33-01 [3] was found to be 0.3 nM; in the assay with His10/Avi Cyno IL-33, 10 nM; in the assay with His10/Avi Human IL33-01 [4], 0.6 nM.

B8: 33_640237 IgG1 (antibody, V domains shown)
VH: EVQLLESGGGLVQPGGSLRLSCAASGFTFSSYAMSWVRQAPGKGLEWVSGIADDFTSTYYADPVKGRFTISRDNSKNTLYLQMNSLRAEDTAVYYCARDLWMMNYAGGLRYPFGYWGQGTTVTVSS
VL: SYVLTQPPSVSVSPGQTASITCSGERMGDKYAAWYQQKPGQSPVLVIYRDTKRPSGIPERFSGSNSGNTATLTISGTQAIDEADYYCGVLKQDTGVFGGGTKVTVL
notes: IgG1; also called ZZ1M37-E06
With B8, the half-maximal inhibitory concentration (IC50) was 0.1 nM with His10/Avi Human IL33-01 [3], 1.8 nM in the assay with His10/Avi Cyno IL-33 and 0.1 nM with His10/Avi Human IL33-01 [4]. The “IC50, Huvec IL-8 assay vs. His Avi IL-33” value in the assay with His10/Avi Human IL33-01 [5] came out at 0.056 nM. In [6], the “IC50, Huvec IL-8 assay vs. full length IL-33 cell lysate” value amounted to 0.091 nM.

B9: 33_640087-7B Fab (Fab, V domains shown)
VH: EVQLLESGGGLVQPGGSLRLSCAASGFTFSSYAMSWVRQAPGKGLEWVSGISAIDQSTYYADSVKGRFTISRDNSKNTLYLQMNSLRAEDTAVYYCARQKFMQLWGGGLRYPFGYWGQGTMVTVSS
VL: SYVLTQPPSVSVSPGQTASITCSGEGMGDKYAAWYQQKPGQSPVLVIYRDTKRPSGIPERFSGSNSGNTATLTISGTQAMDEADYYCGVIQDNTGVFGGGTKLTVL
notes: Fab made by papain cleavage of full length IgG1
Consider B9, for which, in [7], the Kd is 0.00043 nM, the koff stood at 9.42e-06 s⁻¹ and the kon amounted to 2.2e+07 M⁻¹ s⁻¹.

B10: 33_640001 Fab (Fab, V domains shown)
VH: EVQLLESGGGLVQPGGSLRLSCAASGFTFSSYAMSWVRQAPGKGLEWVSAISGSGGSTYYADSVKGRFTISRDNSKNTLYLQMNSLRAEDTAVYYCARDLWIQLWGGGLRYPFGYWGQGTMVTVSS
VL: SYVLTQPPSVSVSPGQTASITCSGERMGDKYAAWYQQKPGQSPVLVIYQDTKRPSGIPERFSGSNSGNTATLTISGTQAMDEADYYCQVWDSSTGVFGGGTKVTVL
notes: as for B9
Turning to B10, in [7], the Kd stood at 3.34 nM, the koff came to 0.0326 s⁻¹ and the kon is 9.76e+06 M⁻¹ s⁻¹.

B11: 33_640050 Fab (Fab, V domains shown)
VH: EVQLLESGGGLVQPGGSLRLSCAASGFTFSSYAMSWVRQAPGKGLEWVSAISGSGGSTYYADSVKGRFTISRDNSKNTLYLQMNSLRAEDTAVYYCPRHKFMQLWGGGLRYPFGYWGQGTMVTVSS
VL: SYVLTQPPSVSVSPGQTASITCSGERMGDKYAAWYQQKPGQSPVLVIYQDTKRPSGIPERFSGSNSGNTATLTISGTQAMDEADYYCQVWDSSTGVFGGGTKVTVL
notes: as for B9
As for B11, in assay [7], the Kd was determined as 0.0034 nM, the koff stood at 0.000105 s⁻¹ and the kon is 3.08e+07 M⁻¹ s⁻¹.

B12: IL330180 IgG (antibody, V domains shown)
VH: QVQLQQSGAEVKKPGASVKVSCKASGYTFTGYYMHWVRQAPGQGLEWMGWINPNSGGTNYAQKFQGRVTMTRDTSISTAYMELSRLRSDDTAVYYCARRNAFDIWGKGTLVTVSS
VL: QPVLTQPPSVSEAPRQRVTISCSGSSSNIGNNAVNWYQQLPGTAPKLLIYRNNQRPSGVPDRFSGSKSGTSASLAISGLRSEDEADYYCAAWDDSLSGWVFGGGTKVNVL
As to B12, the “IC50, Mast cell IL-6 production” value in [8] worked out at 22 nM.
